Laboratory results taken from publication PMC10372031, “Architecture and autoinhibitory mechanism of the plasma membrane Na^+/H^+ antiporter SOS1 in Arabidopsis” (Nature Communications, 2023).

Biological target: the molecule itself
Assay: cryo-EM structure; single-particle cryo-EM of purified SOS1 in 20 mM HEPES pH 7.5, 150 mM NaCl, 5 mM β-ME, 0.007% GDN; two conformations (SOS1 at 2.8 Å, SOS1^expand at 3.4 Å)

B1: Arabidopsis thaliana Salt-overly-sensitive 1 (SOS1), full-length wild type (natural protein, UniProt Q9LKW9 1-1146, looked up)
chain: MTTVIDATMAYRFLEEATDSSSSSSSSKLESSPVDAVLFVGMSLVLGIASRHLLRGTRVPYTVALLVIGIALGSLEYGAKHNLGKIGHGIRIWNEIDPELLLAVFLPALLFESSFSMEVHQIKRCLGQMVLLAVPGVLISTACLGSLVKVTFPYEWDWKTSLLLGGLLSATDPVAVVALLKELGASKKLSTIIEGESLMNDGTAIVVFQLFLKMAMGQNSDWSSIIKFLLKVALGAVGIGLAFGIASVIWLKFIFNDTVIEITLTIAVSYFAYYTAQEWAGASGVLTVMTLGMFYAAFARTAFKGDSQKSLHHFWEMVAYIANTLIFILSGVVIAEGILDSDKIAYQGNSWRFLFLLYVYIQLSRVVVVGVLYPLLCRFGYGLDWKESIILVWSGLRGAVALALSLSVKQSSGNSHISKETGTLFLFFTGGIVFLTLIVNGSTTQFVLRLLRMDILPAPKKRILEYTKYEMLNKALRAFQDLGDDEELGPADWPTVESYISSLKGSEGELVHHPHNGSKIGSLDPKSLKDIRMRFLNGVQATYWEMLDEGRISEVTANILMQSVDEALDQVSTTLCDWRGLKPHVNFPNYYNFLHSKVVPRKLVTYFAVERLESACYISAAFLRAHTIARQQLYDFLGESNIGSIVINESEKEGEEAKKFLEKVRSSFPQVLRVVKTKQVTYSVLNHLLGYIENLEKVGLLEEKEIAHLHDAVQTGLKKLLRNPPIVKLPKLSDMITSHPLSVALPPAFCEPLKHSKKEPMKLRGVTLYKEGSKPTGVWLIFDGIVKWKSKILSNNHSLHPTFSHGSTLGLYEVLTGKPYLCDLITDSMVLCFFIDSEKILSLQSDSTIDDFLWQESALVLLKLLRPQIFESVAMQELRALVSTESSKLTTYVTGESIEIDCNSIGLLLEGFVKPVGIKEELISSPAALSPSNGNQSFHNSSEASGIMRVSFSQQATQYIVETRARAIIFNIGAFGADRTLHRRPSSLTPPRSSSSDQLQRSFRKEHRGLMSWPENIYAKQQQEINKTTLSLSERAMQLSIFGSMVNVYRRSVSFGGIYNNKLQDNLLYKKLPLNPAQGLVSAKSESSIVTKKQLETRKHACQLPLKGESSTRQNTMVESSDEEDEDEGIVVRIDSPSKIVFRNDL
notes: Arabidopsis thaliana SOS1 Na+/H+ antiporter, ecotype Columbia (Col-0) cDNA, 1146 residues; model holds residues 32-972, 1007-1017 and 1030-1048; Eluate was incubated with PreScission protease for 3 h before SEC; residues of the protease site may remain at the C-terminus; also called AtSOS1; SOS1-ClassII; source: HEK293F cells (Bac-to-Bac baculovirus, pEG-BacMam), purified (Streptactin beads, …)
- stoichiometry N: 2
